Assay [1] has as its target toxin Cll2 from Centruroides limpidus limpidus (Centruroides limpidus limpidus, UniProt P59898 1-66). The assay can be described thus: phage ELISA, Cll2 coated at 3 µg/ml, anti-M13-HRP, Abs. 492 nm. Background: ELISA stands for enzyme-linked immunosorbent assay.
Assay [2] concerns the target T1, toxin Cll1 from Centruroides limpidus limpidus (Centruroides limpidus limpidus, UniProt P45667 1-66).
T1 sequence: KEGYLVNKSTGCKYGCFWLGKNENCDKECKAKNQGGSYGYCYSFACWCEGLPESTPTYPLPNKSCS
Description: phage ELISA, Cll1 coated at 3 µg/ml, anti-M13-HRP, Abs. 492 nm.

Assay [3] addresses T2, toxin Cn2 from Centruroides noxius Hoffmann scorpion venom (Centruroides noxius Hoffmann, UniProt P01495 17-82).
T2 construct: mature; also called Cn2 toxin; formerly 11-9.2.2
Description: SPR (Biacore), Cn2 immobilised, soluble scFv injected.

Another assay has as its target T3, BSA (Bos taurus, UniProt P02769).
T3 construct: also called bovine serum albumin
The assay can be described thus: phage ELISA, BSA coated, anti-M13-HRP, Abs. 492 nm.

B1: scFv C1 (scFv)
scFv: QVNLRESGGGLVQPGGSLRLSCAASGFSFGSYGMHWVRQAPGKGLEWVAVISYDGSNKYYADSVKGRFTISRDNSKNTLYLQMNSLRAEDTAVYYCAKDARDCLMCADWYFDLWGRGTLVTVSSGGGGSGGGGSGGGGSNFMLTQPHSASGTPGQRVTISCSGSSSNIGSNTVNWYRHLPGSAPELLIGSHNQRPSGVPDRFSASKSDTSASLAISGLQSEDEADYYCAAWDDSLIGYVFGTGTKLTVLG
notes: also called clone C1; phage-antibody C1
The Kd is the concentration at which binding is half-saturated. The low end stands for higher affinity, the high end for lower affinity. What is called koff is the rate constant with which the complex falls apart. Lower therefore signals a long-lived complex. As a reminder, the kon is the rate constant with which the complex forms. As to B1, in assay [1], the binding result is listed as “no binding (tested: 1x10^11 phages/ml)”. The binding result in assay [2] is reported as “no binding (tested: 1x10^11 phages/ml)”. In assay [3], this molecule displayed a dissociation constant Kd of 540 nM, a koff of 0.014 s⁻¹ and a kon of 20000 M⁻¹ s⁻¹. Further, in the assay with BSA, the binding result is listed as “no binding (tested: 1x10^11 phages/ml)”.

B2: scFv 3F (scFv)
scFv: EVQLVESGGGLVQPGGSLRLSCAGSGFTFDNYAMHWIRQVPGEGLEWVSGISRSSGDIGYADSVKGRFTISRDNAKKSLSLQMNSLRAEDTAVYYCARGGVGSFDTWGQGTMVTVSSGGGGSGGGGSGGGGSEIVLTQSPATLSVSPGERATLSCRASQSVRSYLAWYQQKPGQAPRLLISDASNRATGIPARFTGSGSGTDFTLTISSLEPEDFAIYYCQQYRYSPRTFGQGTKVEIKR
notes: also called clone 3F; phage-antibody 3F
Regarding B2, the binding result (in assay [1]; in assay [2]; with BSA) was “no binding (tested: 1x10^11 phages/ml)” throughout.

(Values after patent publication US20070071750A1 (UNIVERSIDAD NACIONAL AUT NOMA DE M XICO UNAM, published 2007).)
